Holding throughout (experiment): pull-down binding Z-score (relative to library population); higher = stronger binding
What all share (conditions): RNA library: Library-2

Series [1] deals with TO-3-N3 (biotin conjugate). The method in brief:
(§1)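 Biotin-conjugated small molecule (100 pmol) on streptavidin beads was incubated with 1 μg of heat-folded Cy5- or Cy3-end-labelled RNA library in phosphate/NaCl/KCl buffer at 25 °C for 60 min. Following three washes, RNA was eluted with hot SDS and hybridised at 55.5 °C for 20 h to a DNA barcode microarray. The binding value is a Z-score computed from the library mean and standard deviation, after subtraction of beads without compound and averaging of barcoded replicate probes with the highest and lowest excluded.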

Series [2] deals with TO-3-N3-2 (biotin conjugate). The method in brief: as §1
Series [3] has as its system TO-N3 (biotin conjugate). The method in brief: as §1
The test system of series [4] is TO-N3-2 (biotin conjugate). The method in brief: as §1

The text below walks through data of the supplement of paper PMC11865577.

For “GGUUCAACUCUCCCUAGGAGGUCUGGAGCC [IAV_invivo_NP_5_Motif_11+IAV_invivo_NP_5_Motif_11]”, the “pull-down binding Z-score” value was -0.418 in series [1], -0.309 in series [2], -0.225 in series [3] and 0.0598 in series [4].

“UAGUUACACGGUGUUUAAACCGUGUUUGUACUA [SHAPE_invivo_SARS-CoV-2_Motif_139]”: the “pull-down binding Z-score” value was -0.83 in series [1], -0.496 in series [2], -1.15 in series [3] and -1.11 in series [4].

In the case of “GGCGUCUCAAGGCACC [IAV_invivo_NP_5_Motif_2+IAV_invivo_NP_5_Motif_2]”, the “pull-down binding Z-score” value in series [1] was 0.308; in series [2], -0.687; in series [3], 0.151; in series [4] it was -0.084.

Regarding “AAACCCGGUAAUUUUAACAAAGACUUCUAUGACUUUGCUGUGUCUAAGGGUUU [SHAPE_invivo_SARS-CoV-2_Motif_278]”, the “pull-down binding Z-score” value in series [1] is -0.52; in series [2] it was -0.338; in series [3] it was -0.677; in series [4], -0.917.

On to “GUGCGUAUAAAGAUUGUACAAAUGUUAAGUGACACACUUAAAAAUCUCUCUGACAGAGUCGUAUUUGUCUUAUGGGCAC [DMSMaPseq_invitro_SARS-CoV-2_Multi_54_ComplexLevel_1]”, for which the “pull-down binding Z-score” value in series [1] was -1.04; in series [2], -0.29; in series [3], -0.833; in series [4] it was -0.644.

In the case of “CCCAGAUGAAGGCACAGCUGGAGUGGAGUCCGCUGUUCUGAGGGGAUUCCUCAUUCUGGG [IAV_invivo_PB2_1_Motif_33+IAV_invivo_PB2_1_Motif_33]”, the “pull-down binding Z-score” value was -0.0325 in series [1], 0.166 in series [2], 0.671 in series [3] and 1.54 in series [4].

As for GAGACAUUUAAACUGUCUU, the “pull-down binding Z-score” value in series [1] was -0.469; in series [2], -0.286; in series [3] it was -0.91; in series [4], -1.06.

As to “ACACAUUCUGACAAAUUCACAGAUGGUGU [SHAPE_invitro_SARS-CoV-2_Motif_350]”, the “pull-down binding Z-score” value in series [1] was -0.577; in series [2], -0.395; in series [3] it was -0.471; in series [4], 0.264.

Take “UGCCAUUUGUCAUGAUGGAAAAGCACACUUUCCUCGUGAAGGUGUCUUUGUUUCAAAUGGCA [SHAPE_invivo_SARS-CoV-2_Motif_465]”: the “pull-down binding Z-score” value in series [1] was -0.108; in series [2], -0.218; in series [3], -0.0789; in series [4] it was -0.463.

For “GGCACAAAUGCAACACUGCAUUACCAUGCGGUUGUGCC [3-way model-1_rpoH]”, the “pull-down binding Z-score” value in series [1] is -1.03; in series [2], -0.624; in series [3], -1.42; in series [4] it was -1.27.

Take “GAAAAUGACUCUAAAGAGGGUUUUUUC [SHAPE_invitro_SARS-CoV-2_Motif_382]”: the “pull-down binding Z-score” value in series [1] is -0.0158; in series [2], -0.323; in series [3], -0.18; in series [4], -0.375.

As for “UAGACAAUUCUAGUCUUACUAUUAAGAAACCUAAUGAAUUAUCUA [SHAPE_invivo_SARS-CoV-2_Motif_135]”, the “pull-down binding Z-score” value in series [1] is -1.02; in series [2], -0.287; in series [3] it was -1.27; in series [4], -1.41.

As to “GGCAGCGAGCC [IAV_invivo_NP_5_Motif_25+IAV_invivo_NP_5_Motif_25]”, the “pull-down binding Z-score” value is -0.756 in series [1], -0.633 in series [2], -1.01 in series [3] and -0.713 in series [4].

Regarding “GUGCCUGGAAUAUUGGUGAACAGAAAUCAAUACUGAGUCCUCUUUAUGCAUUUGCAUCAGAGGCUGCUCGUGUUGUACGAUCAAUUUUCUCCCGCAC [SHAPE_invivo_SARS-CoV-2_Motif_37]”, the “pull-down binding Z-score” value is -0.254 in series [1], -0.0608 in series [2], -0.115 in series [3] and 0.225 in series [4].

Regarding GACAGUGGUUGCCUACGGGUACGCUGCUUGUC, the “pull-down binding Z-score” value is 0.731 in series [1], -0.021 in series [2], 0.666 in series [3] and 0.01 in series [4].

As to ACACGGUGUUUAAACCGUGU, the “pull-down binding Z-score” value in series [1] is 0.59; in series [2], -0.00656; in series [3], 0.0341; in series [4], -1.15.

UGGGUAGAAUUCGAUCUGUCUAUCCA: the “pull-down binding Z-score” value is -0.51 in series [1], -0.21 in series [2], -0.686 in series [3] and -0.327 in series [4].

For the sequence “ACAAGUUGCAAUUUACAAGUCUUGAAAUUCCACGUAGGAAUGUGGCAACUUUACAAGCUGAAAAUGUAACAGGACUCUUUAAAGAUUGU”, the “pull-down binding Z-score” value is -0.302 in series [1], 0.247 in series [2], -0.143 in series [3] and 0.121 in series [4].

Consider “GGCCAGGUUUCAAGGCC [IAV_invivo_PA_3_Motif_22+IAV_invivo_PA_3_Motif_22]”, for which the “pull-down binding Z-score” value in series [1] is -0.64; in series [2], -0.644; in series [3], -0.785; in series [4] it was -0.29.

For “ACCGGUGGAAUUGCUAUCGCAAUGGCUUGUCUUGUAGGCUUGAUGUGGCUCAGCUACUUCAUUGCUUCUUUCAGACUGUUUGCGCGUACGCGUUCCAUGUGGU”, the “pull-down binding Z-score” value in series [1] came to 1.2; in series [2] it was 0.131; in series [3], 1.07; in series [4], 0.838.

As for “ACCAACCACCACAAACCUCUAUCACCUCAGCUGUUUUGCAGAGUGGUUUUAGAAAAAUGGCAUUCCCAUCUGGU”, the “pull-down binding Z-score” value in series [1] worked out at 0.0884; in series [2], 0.384; in series [3], 0.386; in series [4], 0.456.

AACAGGAGUCACCUUUUGUU: the “pull-down binding Z-score” value in series [1] is -0.0743; in series [2], -0.0265; in series [3], -0.267; in series [4], -0.716.

For the sequence “GUUGACAGGACACGAGUAACUCGUCUAUCUUCUGCAGGCUGCUUACGGUUUCGUCCGUGUUGCAGCCGAUCAUCAGC”, the “pull-down binding Z-score” value in series [1] is -0.282; in series [2], -0.335; in series [3], 0.461; in series [4] it was 1.31.
